Reference: patent US9872831B2 (ALFASIGMA S.P.A., priority 2011, dated 2018)

Columns and labels:
[1] = Linkage of instilled oxidized avidin to surgically lesioned bladder, PET with i.v. 68-Ga-ST2210; type: in vivo, pig; conditions: 1 h instillation, PET 4 h after 68-Ga-ST2210 i.v.
Procedure: Anesthetised female pig of about 40 kg was subjected to surgery to generate two 2 cm superficial lesions on the bladder wall. […] Bladder was then washed with saline and 0.5 μg 68-Ga-ST2210 was i.v. administered. After 4 hours the pig was subjected to PET.

[2] = Chemical integrity of oxidized avidin after nebulisation (HPLC); type: physicochemical; conditions: 3.0 mg/ml in 100 mM sodium acetate pH 5.5, nebulised 1 hour at room temperature
Excerpt: The particle size of the protein solution midst was 5 μm. The nebulised solution was recovered in a falcon tube and analyzed by HPLC.

[3] = Biodistribution of i.v. 111In-ST2210 after nebulised oxidized avidin; type: in vivo, Balb/c mice; conditions: nebulised 1 hour (about 90 mg/kg); 111In-ST2210 i.v. 24 h later; sacrifice after 2 or 24 hours
Procedure: A biodistribution experiment aimed at determining the lung uptake selectivity and stability of ^111In-ST2210 was conducted. […] Twenty four hours after, all mice received ^111In-ST2210 intravenously (i.e., 1 μg in 0.2 ml of saline), and after further 2 or 24 hours, the animals were sacrificed by CO2 asphyxia. The lung and non target organs were collected weighed and counted in a gamma counter.

[4] = Immunohistochemistry of lung sections with anti-avidin antibody after aerosol exposure; type: in vivo, Balb/c mice; conditions: 24 hours after aerosol exposure
Procedure: The lungs were removed and fixed in formalin and paraffin embedded. Serial sections obtained by means of a microtome were processed and incubated with a HRP-conjugated rabbit anti-avidin antibody (GeneTex, USA) and then with DAB substrate.

[5] = PET imaging of i.v. 64Cu-ST2210 after nebulised oxidized avidin; type: in vivo, Balb/c mice; conditions: 64Cu-ST2210 1 μg i.v. 24 h after aerosol; PET 4 hours after
Procedure: After 24 hours, they received an intravenous 1 μg dose of ^64Cu-ST2210. ^64Cu-ST2210 distribution was examined by PET imaging 4 hours after. […] Kidneys, bladder are visible in both groups of mice. This observation is consistent with the physiological elimination of ST2210 at that time point.

A431 cells = assay: Inhibition of proliferation, Cell Titer Glow assay; type: cell-based, Human; conditions: oxidized avidin alone compared with medium only (data not shown)
Procedure: Proliferation inhibition was measured by Cell Titer Glow assay, Promega.

[6] = Uptake of i.v. 111In-ST2210 in lung and non target organs 24 h after inhalation exposure
Procedure: Twenty Sprague Dawley rats were divided in three different groups.
All rats were sacrificed 2 hours after the i.v. administration of ^111In-ST2210, and samples of blood, spleen, kidney, liver, stomach, brain, trachea, and tissue samples of different portions of lung were collected, weighed and analyzed with the use of a gamma-counter (Perkin Elmer). Data were expressed as the % of injected dose/gram of tissue (% ID/g).

Oxidized avidin: chemically oxidized avidin according to example 1 of WO2009016031, about 8 to 15 aldehyde moieties
binding to bladder tissue ([1]; intact bladder tissue): completely inert | binding to bladder tissue ([1]; region subjected to surgery): enabled the binding of oxidized avidin | HPLC elution profile pre and post nebulisation [2]: same elution profile | uptake of 111In-ST2210 in the lung [3]: specific and significant uptake | distribution of oxidized avidin in the lung [4]: homogenous in all lung compartments | localisation of oxidized avidin in lung sections [4]: presence of oxidized avidin at broncho/epithelial level down to terminal bronchioles | 64Cu-ST2210 PET signal in the lungs [5]: presence of a radioactive signal in the lungs | effect on cell proliferation (A431 cells): did not affect cell proliferation | 111In-ST2210 % ID/g Blood ([6]; Blood, 2 h after i.v. 111In-ST2210, 24 h after inhalation (about 10 mg/kg)): 0.012 ± 0.004 % ID/g | 111In-ST2210 % ID/g Kidney ([6]; Kidney, 2 h after i.v. 111In-ST2210, 24 h after inhalation): 0.414 ± 0.033 % ID/g | 111In-ST2210 % ID/g Liver ([6]; Liver, 2 h after i.v. 111In-ST2210, 24 h after inhalation): 0.051 ± 0.005 % ID/g | 111In-ST2210 % ID/g Lung dx (caudal lobe) ([6]; Lung dx (caudal lobe), 2 h after i.v. 111In-ST2210, 24 h after inhalation): 0.055 ± 0.009 % ID/g | 111In-ST2210 % ID/g Lung dx (cranial, middle and accessory lobe) ([6]; Lung dx (cranial, middle and accessory lobe), 2 h after i.v. 111In-ST2210, 24 h after inhalation): 0.055 ± 0.011 % ID/g | 111In-ST2210 % ID/g Lung sn ([6]; Lung sn, 2 h after i.v. 111In-ST2210, 24 h after inhalation): 0.053 ± 0.008 % ID/g | 111In-ST2210 % ID/g Lung ([6]; Lung, 2 h after i.v. 111In-ST2210, 24 h after inhalation): 0.054 ± 0.009 % ID/g | 111In-ST2210 % ID/g Spleen ([6]; Spleen, 2 h after i.v. 111In-ST2210, 24 h after inhalation): 0.032 ± 0.002 % ID/g | 111In-ST2210 % ID/g Stomach ([6]; Stomach, 2 h after i.v. 111In-ST2210, 24 h after inhalation): 0.276 ± 0.246 % ID/g | 111In-ST2210 % ID/g Trachea ([6]; Trachea, 2 h after i.v. 111In-ST2210, 24 h after inhalation): 0.029 ± 0.007 % ID/g | organ linkage of nebulised oxidized avidin ([6]; lung versus trachea): bound to the lung but not to the trachea
